Consider five substances from article doi:10.1101/2021.03.20.21254037.

The target of this assay is truncated human ACE2 ectodomain (residues 19-613), AviTagged, biotinylated (human) (UniProt Q9BYF1). The experiment in a line: BLI. In general terms: In BLI a coated tip is dipped into the sample, and binding shifts an interference pattern.

Substance “SARS-CoV-2 RBD natural variant N439K (from UniProt P0DTC2 319-541) (domain or fragment)” yielded a t½ (complex half-time) of 111 s. Turning to “SARS-CoV-2 RBD natural variant N501Y (from UniProt P0DTC2 319-541) (domain or fragment)”, the t½ (complex half-time) was found to be 329 s. Next, “SARS-CoV-2 RBD natural variant Q493L (from UniProt P0DTC2 319-541) (domain or fragment)”: 212 s; “SARS-CoV-2 RBD natural variant S477N (from UniProt P0DTC2 319-541) (domain or fragment)”: 161 s. Take “SARS-CoV-2 RBD wild type (WHU1 isolate, amino acids 319-541) (from UniProt P0DTC2 319-541) (domain or fragment)”: the t½ (complex half-time) came to 83.7 s.
